The assay concerns the target endogenous DNMT1 (human (endogenous in HeLa, HEK293, …, UniProt P26358 1-1616)). In words: cell-based or functional assay.

This note sets out measurements from publication PMC3961655, “Methyllysine Reader Plant Homeodomain (PHD) Finger Protein 20-like 1 (PHF20L1) Antagonizes DNA (Cytosine-5) Methyltransferase 1 (DNMT1) Proteasomal Degradation*” (The Journal of Biological Chemistry, 2014).

Chain of endogenous DNMT1 (human (P26358 whole entry): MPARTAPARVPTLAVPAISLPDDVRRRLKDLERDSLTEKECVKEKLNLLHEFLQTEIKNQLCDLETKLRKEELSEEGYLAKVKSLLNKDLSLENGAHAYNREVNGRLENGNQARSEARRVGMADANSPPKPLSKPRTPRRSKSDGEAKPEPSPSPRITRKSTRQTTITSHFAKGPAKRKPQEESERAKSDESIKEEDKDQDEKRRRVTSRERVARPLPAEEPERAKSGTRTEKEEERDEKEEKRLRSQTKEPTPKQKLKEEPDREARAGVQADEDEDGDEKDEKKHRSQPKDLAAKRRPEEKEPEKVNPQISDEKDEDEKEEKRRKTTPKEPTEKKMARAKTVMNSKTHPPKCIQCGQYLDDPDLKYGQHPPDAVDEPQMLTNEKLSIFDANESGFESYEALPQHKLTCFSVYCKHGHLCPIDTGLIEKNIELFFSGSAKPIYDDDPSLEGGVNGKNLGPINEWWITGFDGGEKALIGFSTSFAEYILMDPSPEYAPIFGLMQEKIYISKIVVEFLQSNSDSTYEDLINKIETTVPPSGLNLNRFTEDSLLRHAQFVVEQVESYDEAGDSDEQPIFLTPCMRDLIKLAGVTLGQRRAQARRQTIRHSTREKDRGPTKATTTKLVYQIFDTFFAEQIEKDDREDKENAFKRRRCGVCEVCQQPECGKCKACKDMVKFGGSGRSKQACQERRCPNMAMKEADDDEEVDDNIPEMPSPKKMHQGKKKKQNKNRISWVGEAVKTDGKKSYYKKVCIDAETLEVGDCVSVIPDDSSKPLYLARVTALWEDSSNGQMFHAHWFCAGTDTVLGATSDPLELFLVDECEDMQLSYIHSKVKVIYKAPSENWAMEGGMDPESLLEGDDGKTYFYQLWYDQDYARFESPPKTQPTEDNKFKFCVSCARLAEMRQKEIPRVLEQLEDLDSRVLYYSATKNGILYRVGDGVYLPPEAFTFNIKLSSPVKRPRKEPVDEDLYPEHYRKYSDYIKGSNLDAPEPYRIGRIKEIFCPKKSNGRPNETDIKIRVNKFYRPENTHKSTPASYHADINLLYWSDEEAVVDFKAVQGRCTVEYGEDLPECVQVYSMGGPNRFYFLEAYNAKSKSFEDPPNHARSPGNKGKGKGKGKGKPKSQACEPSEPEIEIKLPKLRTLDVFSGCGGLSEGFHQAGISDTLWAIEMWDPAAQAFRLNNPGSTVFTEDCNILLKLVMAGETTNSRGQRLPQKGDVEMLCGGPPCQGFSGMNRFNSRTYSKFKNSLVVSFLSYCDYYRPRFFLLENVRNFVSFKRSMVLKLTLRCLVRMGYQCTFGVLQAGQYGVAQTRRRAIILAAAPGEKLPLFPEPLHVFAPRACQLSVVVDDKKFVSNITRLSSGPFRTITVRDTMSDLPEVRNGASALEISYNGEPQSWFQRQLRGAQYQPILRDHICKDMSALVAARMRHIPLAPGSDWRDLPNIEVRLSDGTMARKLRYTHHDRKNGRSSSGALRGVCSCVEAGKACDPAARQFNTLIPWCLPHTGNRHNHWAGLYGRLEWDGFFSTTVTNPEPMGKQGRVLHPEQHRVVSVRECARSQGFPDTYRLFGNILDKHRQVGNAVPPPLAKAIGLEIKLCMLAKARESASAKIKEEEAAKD

B1: endogenous PHF20L1a (natural protein, UniProt A8MW92 1-1017, looked up)
chain: MSKKPPNRPGITFEIGARLEALDYLQKWYPSRIEKIDYEEGKMLVHFERWSHRYDEWIYWDSNRLRPLERPALRKEGLKDEEDFFDFKAGEEVLARWTDCRYYPAKIEAINKEGTFTVQFYDGVIRCLKRMHIKAMPEDAKGQVKSQHPLSWCCPIDPAGSCNQSMGSEDWIALVKAAAAAAAKNKTGSKPRTSANSNKDKDKDERKWFKVPSKKEETSTCIATPDVEKKEDLPTSSETFGLHVENVPKMVFPQPESTLSNKRKNNQGNSFQAKRARLNKITGLLASKAVGVDGAEKKEDYNETAPMLEQAISPKPQSQKKNEADISSSANTQKPALLSSTLSSGKARSKKCKHESGDSSGCIKPPKSPLSPELIQVEDLTLVSQLSSSVINKTSPPQPVNPPRPFKHSERRRRSQRLATLPMPDDSVEKVSSPSPATDGKVFSISSQNQQESSVPEVPDVAHLPLEKLGPCLPLDLSRGSEVTAPVASDSSYRNECPRAEKEDTQMLPNPSSKAIADGRGAPAAAGISKTEKKVKLEDKSSTAFGKRKEKDKERREKRDKDHYRPKQKKKKKKKKKSKQHDYSDYEDSSLEFLERCSSPLTRSSGSSLASRSMFTEKTTTYQYPRAILSVDLSGENLSDVDFLDDSSTESLLLSGDEYNQDFDSTNFEESQDEDDALNEIVRCICEMDEENGFMIQCEECLCWQHSVCMGLLEESIPEQYICYICRDPPGQRWSAKYRYDKEWLNNGRMCGLSFFKENYSHLNAKKIVSTHHLLADVYGVTEVLHGLQLKIGILKNKHHPDLHLWACSGKRKDQDQIIAGVEKKIAQDTVNREEKKYVQNHKEPPRLPLKMEGTYITSEHSYQKPQSFGQDCKSLADPGSSDDDDVSSLEEEQEFHMRSKNSLQYSAKEHGMPEKNPAEGNTVFVYNDKKGTEDPGDSHLQWQLNLLTHIENVQNEVTSRMDLIEKEVDVLESWLDFTGELEPPDPLARLPQLKRHIKQLLIDMGKVQQIATLCSV
In the case of B1, the “half-life of DNMT1 in HeLa cells with cycloheximide, 60 uM UNC1215 (MBT domain inhibitor) against ethanol” value was about 50%.
